# PMC4756812, “ZFP57 recognizes multiple and closely spaced sequence motif variants to maintain repressive epigenetic marks in mouse embryonic stem cells”
# T1: MBP-ZFP57 DNA binding domain (Glu87-Ala195) (Mus musculus, UniProt Q8C6P8 87-195)
# T1 sequence: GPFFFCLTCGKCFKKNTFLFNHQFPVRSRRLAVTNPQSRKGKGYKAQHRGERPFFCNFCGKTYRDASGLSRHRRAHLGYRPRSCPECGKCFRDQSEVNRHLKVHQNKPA
# Experiments:
# [1] = biological target: T1, MBP-ZFP57 DNA binding domain …; assay: EMSA; lower efficiency than control TGCCGC; EMSA: 25 pmol protein, 2.5 pmol dsDNA, 25 mM HEPES pH 7.9, 50 mM KCl, 6.25 mM MgCl2, 5% glycerol, on ice 10 min; 5% PAGE, SYBR Green stain; conditions: protein: recombinant; blunt
# [2] = biological target: T1, MBP-ZFP57 DNA binding domain …; assay: EMSA; EMSA: 25 pmol protein, 2.5 pmol dsDNA, 25 mM HEPES pH 7.9, 50 mM KCl, 6.25 mM MgCl2, 5% glycerol, on ice 10 min; 5% PAGE, SYBR Green stain; conditions: protein: recombinant; blunt
Binder,binding result [1],binding result [2]
"Methylated Commd1 (dsDNA, 5mC at top 8, 12 and bottom 12, 8 (5'-based)) DNA 1: GTAACTGCGGCCGCCCCACA DNA 2: TGTGGGGCGGCCGCAGTTAC",binds,–
"Methylated Control (dsDNA, 5mC at top 11 and bottom 9 (5'-based; printed Z)) DNA 1: GTAATATTGCCGCAGTAATA DNA 2: TATTACTGCGGCAATATTAC",–,binds
"Methylated Ston2 JF1 (dsDNA, 5mC at top 7, 17; methylated bottom strand not in material) DNA 1: CTGGGGCGGCAGTTGCCGCAGATGG DNA 2: CCATCTGCGGCAACTGCCGCCCCAG",–,binds
"Methylated 1G (dsDNA, 5mC at top 11 and bottom 9) DNA 1: GTAATATGGCCGCAGTAATA DNA 2: TATTACTGCGGCCATATTAC",–,binds
